From US12698507B2, “Methods and compositions for conferring and/or enhancing herbicide tolerance using protoporphyrinogen IX oxidase of various cyanobacteria or variant thereof” (FarmHannong Co., Ltd., priority 2019, dated 2026) come the findings set out here.

B1: CyPPO19 V165C + V305M + F360I: variant of CyPPO19 PPO protein (SEQ ID NO: 1) (protein)
chain: MSEVDVAIVGGGLSGLSLAWRLQQSAPQYSVVLLEASDRLGGNITTQTAEGFVWELGPNSFAPTPALLQLIAEVGLQSELIRGDRHLPRYIYWRGQLYPLQPTRPLALATSNLLSPWGKVRAALGALGFVPPYLGSGDESVNSFFRRHLGQEVAERLVAPFVSGCYAGDPQQLSAAAAFRRIAQLEKLGGGLIAGALHLRRQQAPKPKPPTSVQMRPGELGSFKEGLAALPRAIAQQLKAPIHLQTPVQEITPDPKGGYLLRSGEQTWRARSVVLATPAYQTAELVAPFQPAIARVLATIPYPTMACVVLAYPAGLGRSVRPGFGVLIPRSQGIRTLGTIWSSCLFPQRTPAGWQVFTSIIGGATDPDLASLSEEAIVQQVQQDLNRLLDLPAAKARLLGMKVWRRAIPQYMVGYPEQWQQVTHALSQTPGLFLCSNYAEGVALGDRVEHGNRTAAAVAAYLSGGQP
modifications: Synthetic_PPO of Thermosynechococcus elongatus PKUAC-SCTE542 (comprising GenBank No. CP032152.1)
B2: CyPPO19 V165S + V305L + F360L: variant of CyPPO19 PPO protein (SEQ ID NO: 1) (protein)
chain: MSEVDVAIVGGGLSGLSLAWRLQQSAPQYSVVLLEASDRLGGNITTQTAEGFVWELGPNSFAPTPALLQLIAEVGLQSELIRGDRHLPRYIYWRGQLYPLQPTRPLALATSNLLSPWGKVRAALGALGFVPPYLGSGDESVNSFFRRHLGQEVAERLVAPFVSGSYAGDPQQLSAAAAFRRIAQLEKLGGGLIAGALHLRRQQAPKPKPPTSVQMRPGELGSFKEGLAALPRAIAQQLKAPIHLQTPVQEITPDPKGGYLLRSGEQTWRARSVVLATPAYQTAELVAPFQPAIARVLATIPYPTLACVVLAYPAGLGRSVRPGFGVLIPRSQGIRTLGTIWSSCLFPQRTPAGWQVFTSLIGGATDPDLASLSEEAIVQQVQQDLNRLLDLPAAKARLLGMKVWRRAIPQYMVGYPEQWQQVTHALSQTPGLFLCSNYAEGVALGDRVEHGNRTAAAVAAYLSGGQP
modifications: Synthetic_PPO of Thermosynechococcus elongatus PKUAC-SCTE542 (comprising GenBank No. CP032152.1)
B3: CyPPO19 V165C + V305M + F360V: variant of CyPPO19 PPO protein (SEQ ID NO: 1) (protein)
chain: MSEVDVAIVGGGLSGLSLAWRLQQSAPQYSVVLLEASDRLGGNITTQTAEGFVWELGPNSFAPTPALLQLIAEVGLQSELIRGDRHLPRYIYWRGQLYPLQPTRPLALATSNLLSPWGKVRAALGALGFVPPYLGSGDESVNSFFRRHLGQEVAERLVAPFVSGCYAGDPQQLSAAAAFRRIAQLEKLGGGLIAGALHLRRQQAPKPKPPTSVQMRPGELGSFKEGLAALPRAIAQQLKAPIHLQTPVQEITPDPKGGYLLRSGEQTWRARSVVLATPAYQTAELVAPFQPAIARVLATIPYPTMACVVLAYPAGLGRSVRPGFGVLIPRSQGIRTLGTIWSSCLFPQRTPAGWQVFTSVIGGATDPDLASLSEEAIVQQVQQDLNRLLDLPAAKARLLGMKVWRRAIPQYMVGYPEQWQQVTHALSQTPGLFLCSNYAEGVALGDRVEHGNRTAAAVAAYLSGGQP
modifications: Synthetic_PPO of Thermosynechococcus elongatus PKUAC-SCTE542 (comprising GenBank No. CP032152.1)
B4: CyPPO19 V165C + L327T + F360I: variant of CyPPO19 PPO protein (SEQ ID NO: 1) (protein)
chain: MSEVDVAIVGGGLSGLSLAWRLQQSAPQYSVVLLEASDRLGGNITTQTAEGFVWELGPNSFAPTPALLQLIAEVGLQSELIRGDRHLPRYIYWRGQLYPLQPTRPLALATSNLLSPWGKVRAALGALGFVPPYLGSGDESVNSFFRRHLGQEVAERLVAPFVSGCYAGDPQQLSAAAAFRRIAQLEKLGGGLIAGALHLRRQQAPKPKPPTSVQMRPGELGSFKEGLAALPRAIAQQLKAPIHLQTPVQEITPDPKGGYLLRSGEQTWRARSVVLATPAYQTAELVAPFQPAIARVLATIPYPTVACVVLAYPAGLGRSVRPGFGVTIPRSQGIRTLGTIWSSCLFPQRTPAGWQVFTSIIGGATDPDLASLSEEAIVQQVQQDLNRLLDLPAAKARLLGMKVWRRAIPQYMVGYPEQWQQVTHALSQTPGLFLCSNYAEGVALGDRVEHGNRTAAAVAAYLSGGQP
modifications: Synthetic_PPO of Thermosynechococcus elongatus PKUAC-SCTE542 (comprising GenBank No. CP032152.1)

The test concerns PPO-deficient BT3 E. coli (ΔPPO). The experiment in a line: PPO-inhibiting herbicide tolerance test of PPO variants in E. coli (growth on herbicide-containing LB agar). Format: cell-based. The settings on record: CyPPO19 variants in BT3 (ΔPPO) E. coli; LB agar with 0 to 2,000 μM herbicide, 37° C., dark, 16-20 hours. The text has this: To enhance the PPO-inhibiting herbicide resistance of CyPPO19 and CyPPO18, PPO variant genes of the above example 2 were constructed. They were transformed to BT3 (ΔPPO) strain which is deficient of PPO activity and cultured in LB media with PPO-inhibiting herbicide, thereby examining whether growth of transformed BT3 was not inhibited.
BT3 competent cells were transformed with the pET303-CyPPO19 (wild type), pET303-CyPPO18 (wild type) plasmids, and those with a mutation(s) constructed (refer to example 2) via heat shock method, and were cultured in LB agar media containing ampicillin.
Single colony transformed with each CyPPO gene was cultured in 3 mL of LB broth (LPSS) containing ampicillin for more than 12 hours, and then was subcultured in LB broth until absorbance (OD600) reached 0.5 to 1. Then, it was diluted with LB broth to OD600=0.5. Again, the diluted solution was serially diluted 4 times by a factor of one tenth.
The LB agar media (LB 25 g/L, Bacto agar 12 g/L) containing ampicillin (100 μg/mL) and 0 to 2,000 μM of various herbicides were prepared. Herbicide solution stocks were all prepared in DMSO.
Then, 10 μL of each diluted solution of E. coli was dropped on the plate and cultured at 37° C. under dark for 16-20 hours. PPO-inhibiting herbicide resistance was evaluated with the extent of E. coli growth containing each gene was observed.
The extent of herbicide resistance was evaluated by the relative growth of variants to that of wild type, and listed in Tables 9 and 10 and FIGS. 3 to 32.
In Tables 9 and 10, the tolerance level of variants showing equivalent resistance to wild type was presented as ‘−’, and was done as ‘+’ per each 10-fold resistance until ‘+++++’ as maximal resistance.
FIGS. 3 to 30 and FIGS. 31 and 32 show the transformed E. coli growth result of CyPPO19 WT and its variants and CyPPO18 WT and its variants, respectively. The concentrations of herbicides were written above the photographs of tolerance test. A 10-fold dilution series of spots were shown from OD600=0.5 of the leftmost spot to OD600=0.00005 of the rightmost one.
Take B1: the “tolerance level relative to wild type, Carfentrazone” value is recorded as “+ (‘+’ per each 10-fold resistance)”; the “tolerance level relative to wild type, Flumioxazin” value is reported as “+++++ (until ‘+++++’ as maximal resistance)”; the “tolerance level relative to wild type, Fomesafen” value is reported as “++ (‘+’ per each 10-fold resistance)”; the “tolerance level relative to wild type, Oxyfluorfen” value is “++ (‘+’ per each 10-fold resistance)”. Besides, the “tolerance level relative to wild type, Saflufenacil” value was “+++++ (until ‘+++++’ as maximal resistance)”; the “tolerance level relative to wild type, Sulfentrazone” value was “+++ (‘+’ per each 10-fold resistance)”; the “tolerance level relative to wild type, Tiafenacil” value is “+++++ (until ‘+++++’ as maximal resistance)”.

On to B2, for which the “tolerance level relative to wild type, Carfentrazone” value is listed as “+ (‘+’ per each 10-fold resistance)”; the “tolerance level relative to wild type, Flumioxazin” value is listed as “+++++ (until ‘+++++’ as maximal resistance)”; the “tolerance level relative to wild type, Fomesafen” value is “+++ (‘+’ per each 10-fold resistance)”; the “tolerance level relative to wild type, Oxyfluorfen” value was “+++ (‘+’ per each 10-fold resistance)”. Further, the “tolerance level relative to wild type, Saflufenacil” value is “+++++ (until ‘+++++’ as maximal resistance)”; the “tolerance level relative to wild type, Sulfentrazone” value was “+++++ (until ‘+++++’ as maximal resistance)”; the “tolerance level relative to wild type, Tiafenacil” value is “+++++ (until ‘+++++’ as maximal resistance)”.

Consider B3, for which the “tolerance level relative to wild type, Carfentrazone” value is on record as “+ (‘+’ per each 10-fold resistance)”; the “tolerance level relative to wild type, Flumioxazin” value is “+++++ (until ‘+++++’ as maximal resistance)”; the “tolerance level relative to wild type, Fomesafen” value is on record as “++ (‘+’ per each 10-fold resistance)”; the “tolerance level relative to wild type, Oxyfluorfen” value is “+++ (‘+’ per each 10-fold resistance)”. Also, the “tolerance level relative to wild type, Saflufenacil” value is given as “+++++ (until ‘+++++’ as maximal resistance)”; the “tolerance level relative to wild type, Sulfentrazone” value was “++++ (‘+’ per each 10-fold resistance)”; the “tolerance level relative to wild type, Tiafenacil” value is “+++++ (until ‘+++++’ as maximal resistance)”.

For B4, the “tolerance level relative to wild type, Carfentrazone” value is “+ (‘+’ per each 10-fold resistance)”; the “tolerance level relative to wild type, Flumioxazin” value was “+++++ (until ‘+++++’ as maximal resistance)”; the “tolerance level relative to wild type, Fomesafen” value is given as “++ (‘+’ per each 10-fold resistance)”; the “tolerance level relative to wild type, Oxyfluorfen” value is recorded as “+++ (‘+’ per each 10-fold resistance)”. Further, the “tolerance level relative to wild type, Saflufenacil” value was “++++ (‘+’ per each 10-fold resistance)”; the “tolerance level relative to wild type, Sulfentrazone” value is listed as “+++++ (until ‘+++++’ as maximal resistance)”; the “tolerance level relative to wild type, Tiafenacil” value is “+++++ (until ‘+++++’ as maximal resistance)”.
